Legend:
[1] = target: Aβ from A549 cell‐conditioned media (human (endogenous in A549)); assay: ELISA; antibody (6E10 or 82E1 against Aβ, or anti‐HN, or anti‐AChE) bound to the wells; 300 μL conditioned medium (0.5 μg·μL^−1) added without or with ATP (100 μM, 1 mM); the partner held with the captured protein detected by its primary antibody
[2] = target: Aβ from A549 cell‐conditioned media (human (endogenous in A549)); assay: ELISA; single‐site ELISA for oligomerized Aβ (capture 4G8, detection 4G8‐biotin) against two‐site ELISA for total Aβ (capture 6E10, detection 4G8‐biotin); conditioned media, control or immunodepleted of HN or AChE, without or with ATP
[3] = target: Aβ from H1299 cell‐conditioned media (human (endogenous in H1299)); assay: as above

Sequence of AChE from A549 cell‐conditioned media (P22303 32-614): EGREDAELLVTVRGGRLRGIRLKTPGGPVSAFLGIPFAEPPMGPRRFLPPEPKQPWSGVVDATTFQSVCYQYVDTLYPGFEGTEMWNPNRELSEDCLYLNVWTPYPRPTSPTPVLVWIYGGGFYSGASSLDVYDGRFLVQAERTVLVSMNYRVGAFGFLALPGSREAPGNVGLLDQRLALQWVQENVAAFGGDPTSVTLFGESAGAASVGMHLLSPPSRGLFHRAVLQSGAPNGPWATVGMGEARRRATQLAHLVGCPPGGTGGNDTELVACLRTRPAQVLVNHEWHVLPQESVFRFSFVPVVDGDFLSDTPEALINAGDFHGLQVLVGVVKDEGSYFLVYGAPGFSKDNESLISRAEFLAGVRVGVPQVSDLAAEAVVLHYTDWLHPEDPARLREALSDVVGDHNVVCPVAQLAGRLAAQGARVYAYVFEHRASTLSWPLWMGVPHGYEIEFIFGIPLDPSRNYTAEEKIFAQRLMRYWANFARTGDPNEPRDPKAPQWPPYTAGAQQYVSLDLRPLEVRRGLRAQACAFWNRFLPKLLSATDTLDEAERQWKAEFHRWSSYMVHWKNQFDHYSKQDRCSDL

HN from A549 cell‐conditioned media (peptide)
fold increase in HN bound to Aβ with 100 μM ATP, relative to samples without added ATP [1]: 1.85 fold
fold increase in HN bound to Aβ with 1 mM ATP, relative to samples without added ATP [1]: 2.5 fold

Aβ from A549 cell‐conditioned media (peptide)
percent oligomer of the total Aβ that remained after immunodepletion of AChE [2]: 47%
percent oligomer of the total Aβ that remained after immunodepletion of HN [2]: 86%
percent oligomer of total Aβ [2]: 63%

AChE from A549 cell‐conditioned media (from UniProt P22303 32-614) (enzyme)
fold decrease in AChE in a complex with Aβ with 100 μM ATP, relative to samples without added ATP [1]: 2.3 fold

Aβ from H1299 cell‐conditioned media (peptide)
percent oligomer of the total Aβ that remained after immunodepletion of HN [3]: 69%
percent oligomer of total Aβ [3]: 48%
